Stoichiometry N data for one substance are collected here from doi:10.1101/2023.01.20.524748.

The assay addresses B.1.1.529 (BA.1) S1 + S2 Trimer-His Recombinant Protein (SARS-CoV-2) (UniProt P0DTC2). In words: cryo-EM structure.

For the substance “B.1.1.529 (BA.1) S1 + S2 Trimer-His Recombinant Protein (from UniProt P0DTC2 324-533) (natural protein)”, the stoichiometry N was 3.
